Experimental data published in article PMC4419512.

Assays:
[1] = target: HIV-1 RF envelope glycoprotein (Env) on virus (HIV-1 (RF)) (UniProt P04579)
[2] = target: HIV-1 subtype A Q168.a2 envelope (Env) on pseudovirus (HIV-1 subtype A)
[3] = target: HIV-1 subtype A Q23.7 envelope (Env) on pseudovirus (HIV-1 subtype A)
[4] = target: HIV-1 subtype B CAAN5342.A2 envelope (Env) on pseudovirus (HIV-1 subtype B)
[5] = target: HIV-1 subtype B JR-FL envelope (Env) on pseudovirus (HIV-1 subtype B) (UniProt Q75760)
[6] = target: HIV-1 subtype B PVO.4 envelope (Env) on pseudovirus (HIV-1 subtype B)
[7] = target: HIV-1 subtype B QH0692.42 envelope (Env) on pseudovirus (HIV-1 subtype B)
[8] = target: HIV-1 subtype C CAP206.8 envelope (Env) on pseudovirus (HIV-1 subtype C)
[9] = target: HIV-1 subtype C COT6.15 envelope (Env) on pseudovirus (HIV-1 subtype C)
[10] = target: HIV-1 subtype C DU151.2 envelope (Env) on pseudovirus (HIV-1 subtype C)
[11] = target: HIV-1 subtype C Du156.12 envelope (Env) on pseudovirus (HIV-1 subtype C)
[12] = target: HIV-1 subtype C Du179.14 envelope (Env) on pseudovirus (HIV-1 subtype C)
[13] = target: monomeric, glycosylated, baculovirus-produced HIV-1 IIIB gp120 (HIV-1 (IIIB)); assay: ITC; lectin (180 μM) in the syringe, gp120 (2.5 μM) in the cell; 55 injections of 5 μl, 600 s spacing, 300 rpm, 30°C; VP-ITC

Substance | Anti-HIV EC50: concentration at which 50% of CEM-SS cells are protected from the cytopathic effects of HIV-1RF infection (XTT assay) [1] [nM] | IC50 of neutralisation, single cycle Tzm-bl pseudovirus assay [2] [nM] | IC50 of neutralisation, single cycle Tzm-bl pseudovirus assay [3] [nM] | IC50 of neutralisation, single cycle Tzm-bl pseudovirus assay [4] [nM] | IC50 of neutralisation, single cycle Tzm-bl pseudovirus assay [5] [nM] | IC50 of neutralisation, single cycle Tzm-bl pseudovirus assay [6] [nM] | IC50 of neutralisation, single cycle Tzm-bl pseudovirus assay [7] [nM] | IC50 of neutralisation, single cycle Tzm-bl pseudovirus assay [8] [nM] | IC50 of neutralisation, single cycle Tzm-bl pseudovirus assay [9] [nM] | IC50 of neutralisation, single cycle Tzm-bl pseudovirus assay [10] [nM] | IC50 of neutralisation, single cycle Tzm-bl pseudovirus assay [11] [nM] | IC50 of neutralisation, single cycle Tzm-bl pseudovirus assay [12] [nM] | Kd [13] [nM] | dH [13] [kcal/mol]
griffithsin (GRFT), native domain-swapped homodimer (from UniProt P84801 1-121) (natural protein) | 0.0138 | 3.8 | 1.19 | 7.34 | 0.922 | 0.037 | 0.0473 | 2.14 | 0.734 | 1.49 | 0.0324 | 0.606 | 8 | -30.4
monomeric griffithsin mGRFT (1GS-S) (from UniProt P84801 16-121) (natural protein) | 119 |  |  |  |  |  |  |  |  |  |  |  | 112 | -35.5
3mGRFT, tandem repeat of three mGRFT (1GS-S) domains joined by Gly-Thr-Gly linkers (designed binder) | 0.001 | 0.331 | 0.432 | 0.326 | 0.325 | 0.27 | 0.223 | 0.181 | 0.412 | 0.308 | 0.0794 | 0.124 | 3 | -74.4
4mGRFT, tandem repeat of four mGRFT (1GS-S) domains joined by Gly-Thr-Gly linkers (designed binder) | 0.0012 | 0.273 | 0.276 | 0.232 | 0.287 | 0.185 | 0.17 | 0.164 | 0.273 | 0.3 | 0.0887 | 0.0934 |  | 
2mGRFT3, tandem repeat of two mGRFT (1GS-S) domains joined by a (Gly-Thr-Gly)3 linker (designed binder) | 0.0026 | 5.28 | 7.16 | 16.9 | 5.77 | 0.558 | 0.513 | 0.696 | 2.54 | 1.7 | 0.0616 | 0.144 | 3 | -47.2
2mGRFT, tandem repeat of two mGRFT (1GS-S) domains joined by a Gly-Thr-Gly linker (designed binder) | 0.0027 | 1.55 | 7.26 | 5.27 | 2.09 | 0.301 | 0.202 | 0.178 | 1.46 | 0.694 | 0.0182 | 0.158 | 5 | -69.6
